The target in assay [1] is SH3P2 (Arabidopsis thaliana) (UniProt Q8VWF1). As to the kind of experiment: mass photometry; SH3P2 at 75 nM; 25 mM HEPES pH 7.5, 200 mM NaCl, 25 mM KH2PO4 pH 8.0; monomer to dimer.
The target is the same in assay [2]. As to the kind of experiment: mass photometry; SH3P2 at 100 nM; 25 mM HEPES pH 7.5, 200 mM NaCl, 25 mM KH2PO4 pH 8.0; monomer to dimer.

As to “SH3P2 (from UniProt Q8VWF1 1-368) (natural protein)”, the percent of dimers at 75 nM in assay [1] came to 60%. For the same substance, in assay [2], the percent of dimers at 100 nM stood at 85% and the stoichiometry N (as a rule, the number of molecules, sites or subunits per partner or assembly) was found to be 2.
